Assays:
Rabbit SLIT3-N = target: T1, Rabbit SLIT3-N (rabbit, UniProt A0A5F9DK65 34-1126); experiment: HTRF competition: d2-labelled rabbit SLIT3-N binding to human ROBO2 on HEK293 cells; geometric mean, n=3
T1 construct: domain: SLIT3-N; d2-labelled in the HTRF assay
T1 sequence: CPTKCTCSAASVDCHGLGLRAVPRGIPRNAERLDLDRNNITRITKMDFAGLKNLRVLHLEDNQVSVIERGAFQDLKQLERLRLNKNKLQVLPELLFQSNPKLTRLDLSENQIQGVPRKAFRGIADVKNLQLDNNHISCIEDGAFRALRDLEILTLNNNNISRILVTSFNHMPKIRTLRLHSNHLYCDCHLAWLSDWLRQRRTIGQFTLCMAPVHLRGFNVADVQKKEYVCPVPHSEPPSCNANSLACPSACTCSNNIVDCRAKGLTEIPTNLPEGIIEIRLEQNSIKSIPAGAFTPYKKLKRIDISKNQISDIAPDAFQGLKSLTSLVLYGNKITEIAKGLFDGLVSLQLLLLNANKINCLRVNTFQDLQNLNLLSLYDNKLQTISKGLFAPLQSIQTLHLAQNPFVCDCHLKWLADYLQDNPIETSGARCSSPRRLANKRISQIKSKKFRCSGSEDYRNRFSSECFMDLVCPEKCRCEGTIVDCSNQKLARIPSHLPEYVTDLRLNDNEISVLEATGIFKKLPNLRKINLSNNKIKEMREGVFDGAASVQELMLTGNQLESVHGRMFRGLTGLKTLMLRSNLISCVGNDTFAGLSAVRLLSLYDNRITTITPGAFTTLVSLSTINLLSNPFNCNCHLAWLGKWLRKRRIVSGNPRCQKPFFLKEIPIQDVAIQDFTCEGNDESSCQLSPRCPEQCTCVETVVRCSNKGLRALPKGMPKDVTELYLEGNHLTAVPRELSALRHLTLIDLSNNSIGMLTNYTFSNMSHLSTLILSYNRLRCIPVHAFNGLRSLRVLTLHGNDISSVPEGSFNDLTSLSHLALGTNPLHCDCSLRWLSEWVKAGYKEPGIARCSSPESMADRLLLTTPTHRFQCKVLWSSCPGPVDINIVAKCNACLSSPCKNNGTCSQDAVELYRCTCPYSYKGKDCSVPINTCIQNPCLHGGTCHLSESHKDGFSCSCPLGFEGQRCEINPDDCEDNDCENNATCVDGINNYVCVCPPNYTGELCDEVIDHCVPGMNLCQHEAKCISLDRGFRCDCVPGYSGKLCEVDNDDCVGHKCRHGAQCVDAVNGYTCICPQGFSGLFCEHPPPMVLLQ
Experimental: After incubation, fluorescence at 665 nm and 620 nm was measured on an Envision multilabel plate reader. The HTRF Ratio was calculated as follows: fluorescence at 665 nm/fluorescence at 620 nm×10,000. […] The IC₅₀ for each SLITx-N was determined using an 11-point, 4-fold dilution series with a top concentration of 4000 nM.

[1] = target: T2, Human/cynomolgus monkey SLIT2-D2 (human and cynomolgus monkey (100% …, UniProt O94813 271-479)); experiment: SPR, ROBO2-Fc 2.2 captured by anti-human Fc on a C1 chip, SLIT2-D2 as analyte, 1:1 model
T2 construct: domain: D2; the crystallisation construct (271-479, His6) is kept as a separate molecule; also called Human and Cynomolgus Monkey SLIT2-D2; SLIT2 D2 domain
T2 sequence (looked up): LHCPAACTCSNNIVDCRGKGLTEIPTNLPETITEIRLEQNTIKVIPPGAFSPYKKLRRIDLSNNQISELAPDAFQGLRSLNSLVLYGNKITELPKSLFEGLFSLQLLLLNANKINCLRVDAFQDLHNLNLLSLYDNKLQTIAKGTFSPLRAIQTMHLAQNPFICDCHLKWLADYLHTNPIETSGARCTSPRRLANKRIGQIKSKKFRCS
Experimental: (§1) HBS-EP was used as a diluent. […] An 8 point 2-fold dilution series was performed on the SLIT2 ligands, ranging from 2 nM to 15.6 pM using HBS-EPB as the diluent. […] Association of the indicated SLIT2 ligand was followed for 120 s and dissociation monitored for 180 s. The apparent binding affinity was determined using a simple 1:1 interaction model of the kinetic rate constants.

Human SLIT2-N = target: T3, Human SLIT2-N (human, UniProt O94813 31-1121, limits assumed); experiment: SPR, ROBO2-Fc 2.2 captured by anti-human Fc on a C1 chip, human SLIT2-N as analyte, 1:1 model
T3 construct: domain: SLIT2-N (N terminal fragment); Soluble analyte in SPR, d2-labelled in HTRF, overexpressed on HEK293 cells in flow cytometry; also called human SLIT2-N (N terminal fragment)
T3 sequence (looked up): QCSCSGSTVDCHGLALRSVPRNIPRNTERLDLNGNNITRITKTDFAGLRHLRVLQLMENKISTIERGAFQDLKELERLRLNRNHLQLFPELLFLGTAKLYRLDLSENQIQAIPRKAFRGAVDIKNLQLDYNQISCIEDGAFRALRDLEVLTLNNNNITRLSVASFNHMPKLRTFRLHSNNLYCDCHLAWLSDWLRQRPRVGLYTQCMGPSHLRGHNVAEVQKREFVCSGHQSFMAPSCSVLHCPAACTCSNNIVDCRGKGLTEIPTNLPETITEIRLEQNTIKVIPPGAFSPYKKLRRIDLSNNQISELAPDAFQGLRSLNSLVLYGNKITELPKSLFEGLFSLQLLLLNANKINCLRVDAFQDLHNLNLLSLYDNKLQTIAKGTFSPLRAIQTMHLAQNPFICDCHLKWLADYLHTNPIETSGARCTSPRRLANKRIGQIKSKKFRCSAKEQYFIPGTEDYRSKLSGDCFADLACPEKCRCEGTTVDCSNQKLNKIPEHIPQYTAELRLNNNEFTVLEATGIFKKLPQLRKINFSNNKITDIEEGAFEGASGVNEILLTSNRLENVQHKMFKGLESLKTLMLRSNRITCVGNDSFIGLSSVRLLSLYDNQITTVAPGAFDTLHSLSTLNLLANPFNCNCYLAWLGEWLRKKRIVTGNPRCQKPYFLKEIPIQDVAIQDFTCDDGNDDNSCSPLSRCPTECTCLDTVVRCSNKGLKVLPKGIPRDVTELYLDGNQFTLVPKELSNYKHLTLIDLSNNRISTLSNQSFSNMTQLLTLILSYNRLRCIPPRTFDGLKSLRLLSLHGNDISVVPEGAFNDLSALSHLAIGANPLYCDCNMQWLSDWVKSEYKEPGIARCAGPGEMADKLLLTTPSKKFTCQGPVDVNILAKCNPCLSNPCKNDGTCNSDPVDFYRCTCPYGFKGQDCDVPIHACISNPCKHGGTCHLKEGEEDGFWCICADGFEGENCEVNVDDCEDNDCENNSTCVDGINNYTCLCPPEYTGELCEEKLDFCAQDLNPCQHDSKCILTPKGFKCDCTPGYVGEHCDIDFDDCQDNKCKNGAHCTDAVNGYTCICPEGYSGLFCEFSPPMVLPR
Experimental: as §1

IC50 (Rabbit SLIT3-N): 10.2 nM
Kd [1]: 0.293 nM
Kd (Human SLIT2-N): 0.279 nM
B1: ROBO2-Fc 2.2 (Fc fusion)
chain: SRLRQEDFPPRIVEHPSDVIVSKGEPTTLNCKAEGRPTPTIEWYKDGERVETDKDDPRSHRMLLPSGSLFFLRIVHGRRSKPDEGSYVCVARNYLGEAVSRNASLEVALLRDDFRQNPTDVVVAAGEPAILECQPPRGHPEPTIYWKKDKVRIDDKEERISIRGGKLMISNTRKSDAGMYTCVGTNMVGERDSDPAELTVFERGGSGGSEPKSSDKTHTCPPCPAPEAAGAPSVFLFPPKPKDTLMISRTPEVTCVVVDVSHEDPEVKFNWYVDGVEVHNAKTKPREEQYNSTYRVVSVLTVLHQDWLNGKEYKCKVSNKALPAPIEKTISKAKGQPREPQVYTLPPSREEMTKNQVSLTCLVKGFYPSDIAVEWESNGQPENNYKTTPPVLDSDGSFFLYSKLTVDKSRWQQGNVFSCSVMHEALHNHYTQKSLSLSPG
notes: Labelled with Alexa Fluor 647 in the flow cytometry assay; also called ROBO-Fc 2.2; ROBO2-Fc 2.2-AF647
